What was measured:
[1] = molecular target: Human Broccoli Ndc80-GFP complex (human) (UniProt O14777)
[2] = molecular target: Xenopus laevis CENP-E-GFP construct (1–473 aa), truncated CENP-E motor (Xenopus laevis); assay: fluorescence microscopy of microtubules on protein-coated beads (MT wall-to-end transition assay); GFP-tagged protein held on coverslip-immobilized 0.9 µm streptavidin beads via biotinylated anti-GFP antibody, one protein per bead; HiLyte647-labeled GMPCPP-stabilized MTs in solution; MTs added with 0.1 mM AMP-PNP, then imaging buffer with ATP; BRB80-based buffer; 32 °C; epifluorescence
[3] = molecular target: Human Broccoli Ndc80-GFP complex (human) (UniProt O14777); assay: fluorescence microscopy of microtubules on protein-coated beads (dynamic MT end-coupling assay); beads coated with Ndc80-GFP only (no CENP-E) via anti-GFP antibody; GMPCPP-stabilized MT seeds, then unlabeled soluble tubulin (6 µM) with 1 mM Mg-GTP; 32 °C

Chain of UniProt O14777 (O14777 whole entry, looked up, the tested form may be a part, one chain of several): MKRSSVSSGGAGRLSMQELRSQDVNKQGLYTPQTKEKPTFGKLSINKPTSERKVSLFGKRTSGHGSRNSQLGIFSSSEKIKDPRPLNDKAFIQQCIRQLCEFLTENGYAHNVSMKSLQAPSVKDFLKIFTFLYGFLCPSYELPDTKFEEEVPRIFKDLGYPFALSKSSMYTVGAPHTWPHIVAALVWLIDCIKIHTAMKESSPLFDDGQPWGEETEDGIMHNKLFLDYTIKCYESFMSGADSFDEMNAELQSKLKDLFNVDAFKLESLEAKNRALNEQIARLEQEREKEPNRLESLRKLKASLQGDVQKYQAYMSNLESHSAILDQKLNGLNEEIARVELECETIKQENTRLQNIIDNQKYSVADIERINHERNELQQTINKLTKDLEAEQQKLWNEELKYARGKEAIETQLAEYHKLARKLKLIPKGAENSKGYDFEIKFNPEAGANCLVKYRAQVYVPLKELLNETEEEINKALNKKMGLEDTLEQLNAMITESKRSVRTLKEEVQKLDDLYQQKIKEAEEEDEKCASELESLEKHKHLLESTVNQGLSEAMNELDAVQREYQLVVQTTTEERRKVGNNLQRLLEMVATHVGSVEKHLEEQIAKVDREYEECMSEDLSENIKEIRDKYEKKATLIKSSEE

## Microtubules polymerised from bovine brain tubulin (from UniProt Q6B856 1-445) (complex)
[1]
  Kaplan–Meier survival of MT end-attachments on beads coated with CENP-E motor and Ndc80 Broccoli: > 28 min
  MT end-retention time on beads coated with CENP-E motor and Ndc80 Broccoli (wall-to-end transition assay): 18.1 min
  percent of MT plus-ends retained on beads coated with CENP-E motor and Ndc80 Broccoli (wall-to-end transition assay): 80%
[2]
  MT end-retention time: 1.1 min
  percent of MT plus-ends retained at the bead: 24%
[3]
  percent of MT segments attached via their ends: 3%
